Measured values: patent US20240368285A1 (HEFEI TG IMMUNOPHARMA, published 2024)

Tests used:
[1] = target: T1, MICA protein (SPR analyte) (human, UniProt Q29983 24-308, limits assumed); experiment: SPR, Biacore 8K, antibody captured on protein A chip, MICA as analyte
T1 construct: also called major histocompatibility complex class I chain related polypeptide A
T1 sequence: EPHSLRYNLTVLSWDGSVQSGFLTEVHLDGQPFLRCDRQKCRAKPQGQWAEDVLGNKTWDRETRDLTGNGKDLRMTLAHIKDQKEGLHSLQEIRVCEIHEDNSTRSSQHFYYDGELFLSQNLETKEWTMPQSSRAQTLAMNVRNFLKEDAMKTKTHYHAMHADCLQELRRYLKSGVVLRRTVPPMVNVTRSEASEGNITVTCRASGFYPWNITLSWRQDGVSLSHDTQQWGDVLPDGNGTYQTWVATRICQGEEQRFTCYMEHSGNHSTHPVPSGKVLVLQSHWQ
Protocol: In a Biacore 8K (Cytiva) system, the antibody was diluted to a concentration of 10 µg/mL with running buffer (HBS-EP), and the antibody was conjugated onto a protein A (Cytiva, 29127556) chip at a flow rate of […].
Kinetic and affinity data of binding of the maternal antibody h5A1 and the affinity maturation antibody h5A1002 and MICA were detected.

MICA008α3-Fc = target: T2, MICA008α3-Fc (human); experiment: ELISA on coated MICA*008 α3-Fc (1 µg/ml), HRP anti-human Fab secondary, OD450
T2 construct: also called MICA*008-Fc; domain α3 of MICA-008 Fc fusion protein
T2 sequence (chain, as listed by the source limits assumed): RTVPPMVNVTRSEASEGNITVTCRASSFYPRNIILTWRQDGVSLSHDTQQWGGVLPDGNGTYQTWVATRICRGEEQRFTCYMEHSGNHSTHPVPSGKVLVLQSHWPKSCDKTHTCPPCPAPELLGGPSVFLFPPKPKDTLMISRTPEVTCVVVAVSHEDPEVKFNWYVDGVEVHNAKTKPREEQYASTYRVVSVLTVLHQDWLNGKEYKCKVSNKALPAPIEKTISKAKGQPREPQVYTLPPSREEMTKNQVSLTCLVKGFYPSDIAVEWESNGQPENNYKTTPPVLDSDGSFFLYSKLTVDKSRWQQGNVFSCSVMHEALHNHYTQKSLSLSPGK

MICA005α3-Fc = target: T3, MICA005α3-Fc (human); experiment: ELISA on coated MICA*005 α3-Fc (1 µg/ml), HRP anti-human Fab secondary, OD450
T3 construct: also called MICA*005-Fc; domain α3 of MICA-005 Fc fusion protein
T3 sequence (chain, as listed by the source limits assumed): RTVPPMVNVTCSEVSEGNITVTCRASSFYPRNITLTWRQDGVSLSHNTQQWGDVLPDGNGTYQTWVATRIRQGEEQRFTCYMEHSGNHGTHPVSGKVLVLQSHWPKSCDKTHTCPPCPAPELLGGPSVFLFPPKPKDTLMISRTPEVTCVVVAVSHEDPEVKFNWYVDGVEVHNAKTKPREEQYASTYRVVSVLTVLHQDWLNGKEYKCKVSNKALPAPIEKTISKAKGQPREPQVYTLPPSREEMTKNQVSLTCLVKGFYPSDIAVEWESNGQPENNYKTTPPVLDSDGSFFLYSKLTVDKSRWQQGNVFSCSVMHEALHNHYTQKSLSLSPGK

[2] = target: T4, MICA on human tumor cells (A-375, A549, HCT-15, MDA-MB-231) (human, UniProt Q29983 24-383); experiment: flow cytometry on A-549 cells, Alexa-647 goat anti-human secondary, % binding ratio
T4 construct: whole, on cells
T4 sequence (looked up): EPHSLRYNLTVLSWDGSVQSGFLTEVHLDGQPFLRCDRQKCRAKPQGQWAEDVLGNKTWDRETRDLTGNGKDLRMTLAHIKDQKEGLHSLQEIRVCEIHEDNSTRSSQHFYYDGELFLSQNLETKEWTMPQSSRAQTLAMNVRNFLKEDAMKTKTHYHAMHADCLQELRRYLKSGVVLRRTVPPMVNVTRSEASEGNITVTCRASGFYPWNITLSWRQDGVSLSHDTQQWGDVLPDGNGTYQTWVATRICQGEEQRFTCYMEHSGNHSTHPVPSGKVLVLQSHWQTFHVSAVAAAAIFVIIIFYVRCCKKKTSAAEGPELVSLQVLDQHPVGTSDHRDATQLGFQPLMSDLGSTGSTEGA
Protocol: (2) Tumor cells were diluted to a density of 2×10⁶/mL with PBS and added into a 1.5 ml EP tube in a volume of 100 l/tube. 10 l/tube of goat serum was added into the EP tube; and blocking was conducted at 4° C. for 30 min. […] The tube was incubated at 4° C. for 30 min. 1 mL of PBS was added into the EP tube, and centrifugation was conducted 4° C. at a rate of 3,500 rpm for 5 min. The supernatant was removed. Then, the EP tube was washed once with the PBS, and the supernatant was removed after centrifugation. The cells were resuspended with PBS in a volume of 100 l/tube. An Alexa-647 labeled goat anti-human secondary antibody (purchased from Jackson lab) was added into the tube in a volume of 1 l/tube, and the tube was incubated in the dark at 4° C. for 30 min. The tube was washed twice with PBS, and the supernatant was removed after centrifugation. The cells were resuspended with the PBS in a volume of 200 l/tube, and detection was conducted by a flow cytometer. The results are as shown in FIG. 17A and FIG. 17B, FIG. 18A and FIG. 18B, FIG. 19A and FIG. 19B, and FIG. 20A and FIG. 20B.

MICB001α3-Fc = target: T5, MICB001α3-Fc; experiment: ELISA on coated MICB*001 α3-Fc (1 µg/ml), HRP anti-human Fab secondary, OD450
T5 construct: also called MICB*001-Fc; domain α3 of MICB-001 Fc fusion protein
T5 sequence (chain, as listed by the source limits assumed): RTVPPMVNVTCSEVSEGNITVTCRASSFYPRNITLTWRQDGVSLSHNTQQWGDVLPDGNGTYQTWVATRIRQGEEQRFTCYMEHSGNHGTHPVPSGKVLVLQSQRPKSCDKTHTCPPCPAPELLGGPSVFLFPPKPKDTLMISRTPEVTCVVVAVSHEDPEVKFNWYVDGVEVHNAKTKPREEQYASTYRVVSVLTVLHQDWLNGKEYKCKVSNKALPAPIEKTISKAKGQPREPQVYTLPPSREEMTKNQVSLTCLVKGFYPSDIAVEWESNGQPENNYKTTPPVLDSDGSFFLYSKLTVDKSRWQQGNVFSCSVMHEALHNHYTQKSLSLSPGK
Protocol: After the antibodies were added, signal intensity was used for judging the binding characteristics of the antibodies and MICA and MICB.
The fusion proteins (produced in the Applicant's laboratory; an amino acid sequence of MICA002α3-Fc is as set forth in SEQ ID NO: 22; an amino acid sequence of MICA005α3-Fc is as set forth in SEQ ID NO: 24; an amino acid sequence of MICA008α3-Fc is as set forth in SEQ ID NO: 25; an amino acid sequence of MICA004α3-Fc is as set forth in SEQ ID NO: 23; an amino acid sequence of MICB001α3-Fc is as set forth in SEQ ID NO: 26; and an amino acid sequence of MICB005α3-Fc is as set forth in SEQ ID NO: 27) were diluted to a concentration of 1 μg/ml with PBS and then added into a 96-well plate in a volume of 100 μl/well. The plate was placed at 4° C. overnight. The PBS in the 96-well plate was removed by sucking. After the plate was washed with PBST (that is, PBS having a pH value of 7.2 included 0.1 volume % of Tween 20) for 6 times, PBS containing 10% of BSA was added in a volume of 200 μl/well. The plate was incubated at 37° C. for 2 hours for blocking. The blocking solution was removed. […]

Kd [1]: 5.4 nM
koff [1]: 0.000129 s⁻¹
kon [1]: 23800 M⁻¹ s⁻¹
EC50 (read off the curve) (MICA008α3-Fc): ~0.06 µg/mL
EC50 (read off the curve) (MICA005α3-Fc): ~0.04 µg/mL
EC50 (read off the curve) [2]: ~0.4 µg/mL
EC50 (read off the curve) (MICB001α3-Fc): ~0.05 µg/mL
B1: affinity maturation antibody h5A1002 (antibody, V domains shown)
VH: QVQLQESGPGLVKPSETLSLTCTVSGFSLTTYGGHWIRQPPGKGLEWIGMIWTDGWTDYNAAFISRVTISVDTSKNQFSLKLSSVTAADTAVYYCARKGHGYYYAMDYWGQGTLVTVSS
VL: EIVLTQSPGTLSLSPGERATLSCTASSSVSSSYLHWYQQKPGQAPRLLIYSTSNLISGIPDRFSGSGSGTDFTLTISRLEPEDFAVYYCHQYHRSPFTFGQGTKLEIKR
notes: Human IgG1, kappa; also called h5A1002-hIgG1
